Molecular target: V3A3E3 PA conjugated to carboxytetramethylrhodamine
Test: FRET or BRET

FRET ratio: 0.6 to 0.7
Substance: V3A3E3 PA conjugated to fluorescein isothiocyanate (peptide)

Source: paper PMC8049983
